Measurements published in patent publication US20150274802A1 (INDIANA UNIVERSITY RESEARCH AND TECHNOLOGY, published 2015).
Several values for one entry are separate records, joined by “and”; a condition that tells them apart may be missing. Equal values may be shown once. Bridge positions count the residues as written; N and C are the ends. Square brackets hold non-standard residues; d marks the D form. Ends that are not written are not given here. I, II: the chains in the order shown. Phe(4-NH2) = Nc1ccc(C[C@H](N)C(=O)O)cc1

B1: MIU-57: B1-PEG20K MIU-35 (ligand)
chain: {PEG 20 kDa}-GPEHLCGAHLVDALYLVCGDRGFYGYGSSSRRAPQTGIVDECCHRSCDLRRLENYCN
modifications: ends and bridges not checked
B2: GE5W-B^1(H5,10Y16L17)25-C^1-A^1(A1H8N18,21) (ligand)
chain: GEEEEEWGPEHLCGAHLVDALYLVCGDRGFYGYGSSSRRAPQTAIVDECCHRSCDLRRLENYCN
B3: B^1(H5,10Y16L17)25-C^1-A^1(T8N18,21) (ligand)
chain: GPEHLCGAHLVDALYLVCGDRGFYGYGSSSRRAPQTGIVDECCTRSCDLRRLENYCN
B4: IGF-1 A:IGF-1 B(1-8)-In (9-17)-IGF-1 B(18-30) (ligand)
chain 1: GIVDECCFRSCDLRRLEMYCA-NH2
chain 2: GPETLCGSHLVEALYLVCGDRGFYFNKPT-NH2
modifications: disulfide I:6-I:11, I:20-II:18, I:7-II:6 (inferred); not fully specified
notes: chimeric B chain
B5: IGF-1 A:B(H5D10Y16L17) (S═O) DPI (ligand)
chain 1: GIVDECCFRSCDLRRLEMYCA-NH2
chain 2: GPEHLCGADLVDALYLVCGDRGFY-NH2
modifications: ends and bridges not checked; also: (S═O) oxidation, residue not given here
B6: IGF-2 AB(YL) (ligand)
chain 1: not shown
chain 2: AYRPSETLCGGELVDTLYLVCGDRGFYFSRPA
modifications: C-terminal amide
B7: IGF-1 A:B (ligand, human)
chain 1: GIVDECCFRSCDLRRLEMYCA
chain 2: GPETLCGAELVDALQFVCGDRGFYFNKPT
modifications: not fully specified (C-terminus); ends and bridges not checked; also: C-terminal amide, chain not given here
notes: domain: B chain; two-chain form of IGF-1
B8: IGF-1 A:B (H5D10Y16L17) DPI (ligand)
chain 1: GIVDECCFRSCDLRRLEMYCA-NH2
chain 2: GPEHLCGADLVDALYLVCGDRGFY-NH2
modifications: cysteine pairing not given here
B9: IGF-1 A (H8 A9 N21):B(H5D10Y16L17A22) (S═O) DPI A-COOH (ligand)
chain 1: GIVDECCHASCDLRRLEMYCN-OH
chain 2: GPEHLCGADLVDALYLVCGDAGFY
modifications: not fully specified (C-terminus); ends and bridges not checked; also: (S═O) oxidation, residue not given here
B10: IGF-1 A (H8 A9 N21):B(H5D10Y16L17 A22) DPI A-COOH (ligand)
chain 1: GIVDECCHASCDLRRLEMYCN-OH
chain 2: GPEHLCGADLVDALYLVCGDAGFY
modifications: not fully specified (C-terminus); ends and bridges not checked
B11: IGF1(Y^B16L^B17)(AlaPro)^A-1,0 (ligand)
chain 1: APGIVDECCFRSCDLRRLEMYCA
chain 2: GPETLCGAELVDALYLVCGDRGFYFNKPT
B12: IGF-1 A:B(E10Y16L17) (ligand)
chain 1: GIVDECCFRSCDLRRLEMYCA-NH2
chain 2: GPETLCGAELVDALYLVCGDRGFYFNKPT-NH2
modifications: cysteine pairing not given here
B13: IGF-1 A:B(E10Y16L17)-E31E32 B-COOH (ligand)
chain 1: GIVDECCFRSCDLRRLEMYCA
chain 2: GPETLCGAELVDALYLVCGDRGFYFNKPTEE-OH
modifications: not fully specified (C-terminus); ends and bridges not checked
B14: IGF-1 A (H8 A9 N21):B(H5D10Y16L17) DPI A-COOH (ligand)
chain 1: GIVDECCHASCDLRRLEMYCN-OH
chain 2: GPEHLCGADLVDALYLVCGDRGFY
modifications: not fully specified (C-terminus); ends and bridges not checked
B15: IGF-1 A:B(D10Y16L17) DPI A-COOH (ligand)
chain 1: GIVDECCFRSCDLRRLEMYCA-OH
chain 2: GPETLCGADLVDALYLVCGDRGFY-NH2
modifications: ends and bridges not checked
B16: IGF-1 A:In B(1-5)-IGF-1 B(YL) (6-30) (ligand)
chain 1: GIVDECCFRSCDLRRLEMYCA
chain 2: FVNQHLCGAELVDALYLVCGDRGFYFNKPT
modifications: ends and bridges not checked; also: C-terminal amide, chain not given here
notes: chimeric B chain
B17: IGF-1 A:B (E10Y16L17) DPI (ligand)
chain 1: GIVDECCFRSCDLRRLEMYCA-NH2
chain 2: GPETLCGAELVDALYLVCGDRGFY-NH2
modifications: cysteine pairing not given here
B18: IGF1 (Y^B16L^B17) (p-NH2-F)^A19 amide (ligand)
chain 1: GIVDECCFRSCDLRRLEM[Phe(4-NH2)]CA
chain 2: GPETLCGAELVDALYLVCGDRGFYFNKPT
modifications: not fully specified; ends and bridges not checked
notes: also called IGF1 (Y^B16L^B17) A(p-NH2-F)^19

What follows are binders tested against T1, human IGF-1 receptor (human, UniProt P08069 31-1367) (assay: cell-based or functional assay).

| Binder | % (potency at the receptor, assay not named) [%] |
| --- | --- |
| B1 | 1.2 |
| B2 | 0.5 |
| B3 | 3.7 |

Molecular target: T1, human IGF-1 receptor
Assay: cell-based or functional assay
Remark: another data set of the same source

| Binder | % Insulin Activity (in vitro, assay not named) [%] |
| --- | --- |
| B1 | 1.2 |

These binders were tested against T2, human insulin receptor (human, UniProt P06213 28-1382) (assay: competition SPA, [125I]insulin).
T2 construct: whole, on cells; receptor-transfected HEK293 cells in the phosphorylation assay
Protocol: (§1) Non-specifically bound (NSB) radioactivity was measured in the wells with a four-fold concentration excess of “cold” native ligand than the highest concentration in test samples. Total bound radioactivity was detected in the wells with no competitor. Percent specific binding was calculated as following: % Specific Binding=(Bound-NSB/Total bound-NSB)×100. IC50 values were determined by using Origin software (OriginLab, Northampton, Mass.).

| Binder | % insulin (in test) [%] | % native insulin activity (0.6 nM) [%] | IC50 [nM] |
| --- | --- | --- | --- |
| B4 | 19.1 | 37.7 | 1.59 |
| B5 | 316 | – | 0.25 |
| B6 | – | – | 6.81 |
| B7 | 5.8 | 5.8 | 10.4 |
| B8 | 479 | – | 0.16 |
| B9 | 401 | – | – |
| B10 | 1170 | – | 0.12 |

Molecular target: T2, human insulin receptor
Assay: competition SPA, [125I]insulin
Remark: another data set of the same source

| Binder | IC50 [nM] |
| --- | --- |
| B11 | 1.93 |

The binders below were run against T2, human insulin receptor (assay: cell-based or functional assay).

| Binder | % Insulin [%] | EC50, receptor phosphorylation |
| --- | --- | --- |
| B12 | 49.2 | 2.57 nM |
| B13 | – | 7 nM and 8.52 nM |
| B10 | – | 0.35 nM and 0.44 nM |
| B14 | – | 0.15 nM and 0.25 nM |
| B15 | 1580 | – |

Molecular target: T1, human IGF-1 receptor
Assay: cell-based or functional assay
Remark: another data set of the same source

| Binder | % IGF [%] | EC50, receptor phosphorylation [nM] |
| --- | --- | --- |
| B8 | 7.1 | 12.2 |
| B10 | 7.7 | 11.3 |
| B14 | 181 | 0.43 |
| B15 | 112 | 0.78 |

Molecular target: T1, human IGF-1 receptor
Assay: cell-based or functional assay
Remark: another data set of the same source

| Binder | Phosphorylation (EC50), % IGF-1 R [%] |
| --- | --- |
| B1 | 1.2 |

Each binder was assayed against T1, human IGF-1 receptor (assay: competition SPA, [125I]IGF-1).
Protocol: as §1

| Binder | % IGF-1 (in test) [%] | % native IGF-1 activity (0.55 nM) [%] |
| --- | --- | --- |
| B16 | 3.6 | 2 |
| B4 | 0.3 | 0.4 |
| B13 | 3 | 3.1 |
| B8 | 11.2 | 11.8 |
| B17 | 3.3 | 2.4 |
| B10 | 2.3 | 2.4 |
| B14 | 12.9 | 13.6 |
| B15 | 7.7 | 8.1 |

Molecular target: T2, human insulin receptor
Assay: competition SPA, [125I]insulin
Remark: another data set of the same source

| Binder | IC50 [nM] |
| --- | --- |
| B18 | 1.08 |
